Reference: publication PMC2892007

Columns and labels:
[1] = molecular target: LigA LigAVar10 (Leptospira interrogans) (UniProt Q72MA6); experiment: SPR
[2] = molecular target: LigA LigAVar11 (Leptospira interrogans) (UniProt Q72MA6); experiment: SPR
[3] = molecular target: LigA LigAVar13 (Leptospira interrogans) (UniProt Q72MA6); experiment: SPR
[4] = molecular target: LigA LigAVar12 (Leptospira interrogans) (UniProt Q72MA6); experiment: SPR
[5] = molecular target: LigA LigAVar7'-8 (Leptospira interrogans) (UniProt Q72MA6); experiment: SPR
[6] = molecular target: LigA LigAVar10 (Leptospira interrogans) (UniProt Q72MA6); experiment: ELISA
[7] = molecular target: LigA LigAVar13 (Leptospira interrogans) (UniProt Q72MA6); experiment: ELISA
[8] = molecular target: Alexa-488 labeled LigBCen2RW1073C (Leptospira; L. interrogans serovar Pomona is the only strain named); experiment: other fluorescence titration
[9] = molecular target: LigBCen9 (Leptospira; L. interrogans serovar Pomona is the only strain named); experiment: SPR
[10] = molecular target: LigAVar12 (Leptospira; L. interrogans serovar Pomona is the only strain named); experiment: SPR
[11] = molecular target: LigBCen7'-8 (Leptospira; L. interrogans serovar Pomona is the only strain named); experiment: SPR
[12] = molecular target: Gelatin-binding domain of human plasma fibronectin (human); experiment: ITC; GBD in the cell (1 ml), Lig protein in the syringe (250 µl), 25 injections of 10 µl, 25°C, Tris buffer with 100 µM CaCl2; independent binding model
[13] = molecular target: Gelatin-binding domain of human plasma fibronectin (human); experiment: SEC-MALS; mixtures of Lig protein and GBD on Superose 6, 20 mM HEPES, 150 mM NaCl, pH 7.5
[14] = molecular target: Gelatin-binding domain of human plasma fibronectin (human); experiment: ELISA

Chain of Fibronectin gelatin binding domain (P02751 306-608): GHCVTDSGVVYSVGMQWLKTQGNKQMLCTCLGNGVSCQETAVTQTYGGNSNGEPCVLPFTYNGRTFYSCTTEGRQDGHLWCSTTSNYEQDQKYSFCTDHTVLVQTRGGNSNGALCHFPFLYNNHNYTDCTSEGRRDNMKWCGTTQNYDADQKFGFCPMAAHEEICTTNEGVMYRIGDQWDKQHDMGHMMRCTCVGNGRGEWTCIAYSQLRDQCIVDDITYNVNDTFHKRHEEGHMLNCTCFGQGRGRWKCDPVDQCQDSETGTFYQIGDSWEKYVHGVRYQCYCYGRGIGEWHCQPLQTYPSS

Row | Substance | 1/n [12] | Kd [12] | dH [12] | stoichiometry N [12] | stoichiometry N [13] | Kd [14] | other results
1 | Fibronectin gelatin binding domain (from UniProt P02751) | – | – | – | – | – | – | Kd [1]: 4.25 µM; Kd [2]: 5.04 µM; Kd [3]: 10.4 µM; Kd [4]: 2.87 µM; Kd [5]: 6.68 µM; Kd [6]: 3.94 µM; Kd [7]: 11 µM
2 | Gelatin-binding domain of human plasma fibronectin (domain or fragment) | – | – | – | – | – | – | Kd [8]: 1.93 µM; koff [9]: 0.00473 s⁻¹; kon [9]: 560 M⁻¹ s⁻¹; koff [10]: 0.00678 s⁻¹; kon [10]: 2360 M⁻¹ s⁻¹; koff [11]: 0.00963 s⁻¹; kon [11]: 3570 M⁻¹ s⁻¹
3 | LigAVar7'-9 (domain or fragment) | 0.98 GBD: Lig | 6.11 µM | -29.2 kcal/mol | 1.02 Lig: GBD | 0.97 GBD: Lig | 6.58 µM | –
4 | LigAVar7'-10 (domain or fragment) | 1.96 GBD: Lig | 4.35 µM | -25.3 kcal/mol | 0.51 Lig: GBD | 2 GBD: Lig | 4.72 µM | –
5 | LigAVar7'-11 (domain or fragment) | 2.98 GBD: Lig | 3.13 µM | -22.1 kcal/mol | 0.335 Lig: GBD | 2.96 GBD: Lig | 3.24 µM | –
6 | LigAVar7'-12 (domain or fragment) | 3.92 GBD: Lig | 2.41 µM | -30.8 kcal/mol | 0.255 Lig: GBD | 4.04 GBD: Lig | 2.44 µM | –
7 | LigAVar7'-13 (domain or fragment) | 4.92 GBD: Lig | 0.047 µM | -94.9 kcal/mol | 0.203 Lig: GBD | 5.05 GBD: Lig | 0.048 µM | –
8 | LigBCen7'-8 (domain or fragment) | 1.01 GBD: Lig | 2.28 µM | -20.4 kcal/mol | 0.985 Lig: GBD | 1.01 GBD: Lig | – | –
9 | LigBCen7'-9 (domain or fragment) | 1.92 GBD: Lig | 1.31 µM | -21.1 kcal/mol | 0.52 Lig: GBD | 2.05 GBD: Lig | 1.39 µM | –
10 | LigBCen7'-10 (domain or fragment) | 1.96 GBD: Lig | 1.35 µM | -26.7 kcal/mol | 0.51 Lig: GBD | 2 GBD: Lig | 1.46 µM | –
11 | LigBCen7'-11 (domain or fragment) | 2.08 GBD: Lig | 1.39 µM | -29 kcal/mol | 0.479 Lig: GBD | 1.98 GBD: Lig | 1.47 µM | –
